Experimental data as given in PMC4883682.

Biological target: C-terminally labeled STIM1(del302-448) (STIM1(del302-448)-AcGFP / STIM1(del302-448)-mApple) (human) (UniProt Q13586)
Assay: cross-linking; chemical crosslinking with dithiobis(succinymidyl propionate); constructs separately expressed; unstimulated state (Supplemental Figure S2)

C-terminally labeled STIM1(del302-448) (STIM1(del302-448)-AcGFP / STIM1(del302-448)-mApple) (from UniProt Q13586 23-685) (natural protein)
stoichiometry N: 2
